Laboratory results taken from the Human Domainome abundance scans (Beltran et al. 2025).

B1: Histidine--tRNA ligase, cytoplasmic, residues 8 to 45; numbered along this chain, P12081 (parent)
chain: EELVKLQGERVRGLKQQKASAELIEEEVAKLLKLKAQL

Variants of: B1
Assay: abundance fitness (aPCA) (normalised: wild type 0, dead -1); higher = more abundant; growth selection in yeast, the domain comes from the species named
Details: Homo sapiens

Abundance fitness of substitutions, site by site:
K15: Y -0.41
Q16: A 0.144 | C -0.288 | D 0.083 | E 0.132 | F -0.397 | G -0.242 | H -0.134 | I -0.227 | K -0.004 | L -0.057 | M 0.028 | N 0.076 | P -0.223 | R -0.11 | S -0.004 | T -0.08 | V -0.039 | W -0.483 | Y -0.427
Q17: D -0.11 | F -0.396 | G -0.071 | H -0.446 | I -0.388 | L -0.232 | M 0.052 | P -0.369 | R -0.196 | S 0.055 | V -0.258 | W -0.5
K18: A 0.047 | C -0.112 | D 0.221 | F -0.45 | G 0.172 | H 0.239 | I -0.375 | M 0.067 | P 0.004 | Q 0.066 | R -0.06 | T -0.083 | V -0.236 | W -0.619 | Y -0.342
A19: C -0.034 | D -0.285 | E -0.17 | F -0.384 | G -0.27 | I -0.538 | K -0.264 | L -0.504 | M -0.039 | N -0.406 | P -0.145 | Q -0.173 | R -0.255 | S -0.21 | T -0.174 | W -0.424 | Y -0.612
S20: C -0.09 | D 0.038 | E 0.068 | F -1.09 | G -0.022 | H -0.128 | K -0.118 | L -0.781 | M -0.431 | N 0.026 | Q -0.057 | R -0.019 | T -0.132 | V -0.693 | W -1.1 | Y -0.945
A21: C -0.202 | D 0.13 | E 0.085 | F -0.075 | G -0.151 | H -0.004 | I -0.101 | K 0.055 | L -0.058 | M 0.116 | N 0.119 | P 0.184 | Q 0.039 | R -0.086 | S 0.072 | T -0.006 | V -0.161 | W -0.49 | Y -0.208
E22: A 0.069 | C -0.107 | D 0.04 | F -0.311 | G -0.03 | H -0.156 | I -0.156 | K 0.075 | L -0.149 | M -0.046 | N 0.055 | P -0.007 | Q 0.13 | R -0.023 | T 0.091 | V 0.052 | W -0.577 | Y -0.288
L23: A -0.037 | D -0.072 | G -0.143 | H -0.075 | I 0.188 | K 0.045 | M 0.243 | N -0.04 | P -0.004 | Q 0.262 | R -0.001 | S -0.266 | T 0.071 | V 0.2 | Y -0.358
I24: A -0.027 | D 0.055 | E -0.151 | F 0.069 | G -0.068 | H 0.169 | K 0 | L 0.03 | M -0.03 | N -0.137 | Q 0.163 | R -0.184 | S -0.171 | T -0.012 | V -0.035 | W -1.01 | Y 0.131
E25: A 0.128 | C -0.331 | D 0.012 | G -0.052 | H 0 | I -0.621 | K -0.001 | L -0.484 | M -0.184 | N 0.055 | P -0.208 | Q 0.071 | R -0.064 | S 0.032 | T -0.009 | W -0.586
E26: A 0.263 | C -0.024
